The target in experiment [1] is T1, recombinant human LPHN2 lectin-olfactomedin-like domain, residues F26-P394 (human, UniProt O95490 26-394).
T1 chain: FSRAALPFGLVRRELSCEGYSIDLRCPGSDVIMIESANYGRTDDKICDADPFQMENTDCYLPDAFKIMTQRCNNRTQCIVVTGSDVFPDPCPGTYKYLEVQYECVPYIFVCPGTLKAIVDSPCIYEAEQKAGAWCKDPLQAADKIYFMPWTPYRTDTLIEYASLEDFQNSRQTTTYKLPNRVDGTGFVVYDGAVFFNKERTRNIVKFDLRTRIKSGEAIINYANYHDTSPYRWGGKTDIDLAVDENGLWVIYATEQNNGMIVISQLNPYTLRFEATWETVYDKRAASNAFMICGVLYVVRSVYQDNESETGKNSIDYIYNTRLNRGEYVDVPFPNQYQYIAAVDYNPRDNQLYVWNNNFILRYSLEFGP
Put plainly: solid-phase binding (ELISA).

In the next experiment the target is LPHN2 Lec. Put plainly: solid-phase binding (ELISA).

B1: deglycosylated LRG1 (LRG1 treated with PNGase F) (ligand)
chain: VTLSPKDCQVFRSDHGSSISCQPPAEIPGYLPADTVHLAVEFFNLTHLPANLLQGASKLQELHLSSNGLESLSPEFLRPVPQLRVLDLTRNALTGLPPGLFQASATLDTLVLKENQLEVLEVSWLHGLKALGHLDLSGNRLRKLPPGLLANFTLLRTLDLGENQLETLPPDLLRGPLQLERLHLEGNKLQVLGKDLLLPQPDLRYLFLNGNKLARVAAGAFQGLRQLDMLDLSNNSLASVPEGLWASLGQPNWDMRDGFDISGNPWICDQNLSDLYRWLQAQKDKMFSQNDTRCAGPEAVKGQTLLAVAKSQ
modifications: N-linked glycans removed with PNGase F (sites N79, N186, N269, N325 on SEQ ID NO: 1)
Consider B1, for which the Kd in experiment [1] amounted to 430 nM.

B2: DG-LRG1 (ligand)
chain: VTLSPKDCQVFRSDHGSSISCQPPAEIPGYLPADTVHLAVEFFNLTHLPANLLQGASKLQELHLSSNGLESLSPEFLRPVPQLRVLDLTRNALTGLPPGLFQASATLDTLVLKENQLEVLEVSWLHGLKALGHLDLSGNRLRKLPPGLLANFTLLRTLDLGENQLETLPPDLLRGPLQLERLHLEGNKLQVLGKDLLLPQPDLRYLFLNGNKLARVAAGAFQGLRQLDMLDLSNNSLASVPEGLWASLGQPNWDMRDGFDISGNPWICDQNLSDLYRWLQAQKDKMFSQNDTRCAGPEAVKGQTLLAVAKSQ
modifications: N-linked glycans removed with PNGase F (sites N79, N186, N269, N325 on SEQ ID NO: 1)
Molecule B2 came in with a Kd in the experiment with LPHN2 Lec of 1100 nM.

B3: recombinant human LRG1 (leucine-rich alpha-2 glycoprotein 1), residues V36-Q347, untagged, glycosylated (ligand)
chain: VTLSPKDCQVFRSDHGSSISCQPPAEIPGYLPADTVHLAVEFFNLTHLPANLLQGASKLQELHLSSNGLESLSPEFLRPVPQLRVLDLTRNALTGLPPGLFQASATLDTLVLKENQLEVLEVSWLHGLKALGHLDLSGNRLRKLPPGLLANFTLLRTLDLGENQLETLPPDLLRGPLQLERLHLEGNKLQVLGKDLLLPQPDLRYLFLNGNKLARVAAGAFQGLRQLDMLDLSNNSLASVPEGLWASLGQPNWDMRDGFDISGNPWICDQNLSDLYRWLQAQKDKMFSQNDTRCAGPEAVKGQTLLAVAKSQ
modifications: glycosyl groups at T37 (O-linked), N79, N186, N269 and N325 (N-linked), numbered on SEQ ID NO: 1
For the molecule B3, the Kd in experiment [1] turned out to be 890 nM.
